Results: patent US20230288411A1, “POLYPEPTIDE, MULTIMER, SOLID PHASE, MEASUREMENT METHOD FOR TEST SUBSTANCE, AND REAGENT KIT” (SYSMEX CORPORATION, priority 2020, published 2023)

Key:
[1] = target: TSH (thyroid stimulating hormone) in HISCL (trademark) TSH Calibrators C0 to C5 (Sysmex Corporation) (UniProt P01215); test: chemiluminescent sandwich ELISA on D-streptavidin-immobilized plate; TSH 50 µIU/mL, five samples
[2] = target: TSH (thyroid stimulating hormone) in HISCL (trademark) TSH Calibrators C0 to C5 (Sysmex Corporation) (UniProt P01215); test: chemiluminescent sandwich ELISA on D-streptavidin-immobilized plate; TSH 50 µIU/mL
[3] = target: TSH (thyroid stimulating hormone) in HISCL (trademark) TSH Calibrators C0 to C5 (Sysmex Corporation) (UniProt P01215); test: chemiluminescent sandwich ELISA on D-streptavidin-immobilized plate; TSH 2 µIU/mL
[4] = target: TSH (thyroid stimulating hormone) in HISCL (trademark) TSH Calibrators C0 to C5 (Sysmex Corporation) (UniProt P01215); test: chemiluminescent sandwich ELISA on D-tamavidin 2-immobilized plate; TSH 50 µIU/mL, five samples
[5] = target: TSH (thyroid stimulating hormone) in HISCL (trademark) TSH Calibrators C0 to C5 (Sysmex Corporation) (UniProt P01215); test: chemiluminescent sandwich ELISA on D-tamavidin 2-immobilized plate; TSH 200 µIU/mL
[6] = target: TSH (thyroid stimulating hormone) in HISCL (trademark) TSH Calibrators C0 to C5 (Sysmex Corporation) (UniProt P01215); test: chemiluminescent sandwich ELISA on D-streptavidin-immobilized plate; TSH 0 µIU/mL (blank)
[7] = target: TSH (thyroid stimulating hormone) in HISCL (trademark) TSH Calibrators C0 to C5 (Sysmex Corporation) (UniProt P01215); test: chemiluminescent sandwich ELISA on D-streptavidin-immobilized plate; TSH 10 µIU/mL
[8] = target: TSH (thyroid stimulating hormone) in HISCL (trademark) TSH Calibrators C0 to C5 (Sysmex Corporation) (UniProt P01215); test: chemiluminescent sandwich ELISA on D-tamavidin 2-immobilized plate; TSH 50 µIU/mL
[9] = target: TSH (thyroid stimulating hormone) in HISCL (trademark) TSH Calibrators C0 to C5 (Sysmex Corporation) (UniProt P01215); test: chemiluminescent sandwich ELISA on D-streptavidin-immobilized plate; TSH 120 µIU/mL
[10] = target: TSH (thyroid stimulating hormone) in HISCL (trademark) TSH Calibrators C0 to C5 (Sysmex Corporation) (UniProt P01215); test: chemiluminescent sandwich ELISA on D-streptavidin-immobilized plate; TSH 200 µIU/mL
[11] = target: TSH (thyroid stimulating hormone) in HISCL (trademark) TSH Calibrators C0 to C5 (Sysmex Corporation) (UniProt P01215); test: chemiluminescent sandwich ELISA on D-tamavidin 2-immobilized plate; TSH 10 µIU/mL
[12] = target: TSH (thyroid stimulating hormone) in HISCL (trademark) TSH Calibrators C0 to C5 (Sysmex Corporation) (UniProt P01215); test: chemiluminescent sandwich ELISA on D-tamavidin 2-immobilized plate; TSH 120 µIU/mL
[13] = target: TSH (thyroid stimulating hormone) in HISCL (trademark) TSH Calibrators C0 to C5 (Sysmex Corporation) (UniProt P01215); test: chemiluminescent sandwich ELISA on D-tamavidin 2-immobilized plate; TSH 2 µIU/mL
[14] = target: TSH (thyroid stimulating hormone) in HISCL (trademark) TSH Calibrators C0 to C5 (Sysmex Corporation) (UniProt P01215); test: chemiluminescent sandwich ELISA on D-tamavidin 2-immobilized plate; TSH 0 µIU/mL (blank)

TSH (thyroid stimulating hormone) in HISCL (trademark) TSH Calibrators C0 to C5 (Sysmex Corporation), sequence (P01215 25-116, chain 1 of 2): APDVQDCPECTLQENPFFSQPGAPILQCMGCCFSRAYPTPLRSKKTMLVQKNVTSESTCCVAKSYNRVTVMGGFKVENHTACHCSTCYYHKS
TSH (thyroid stimulating hormone) in HISCL (trademark) TSH Calibrators C0 to C5 (Sysmex Corporation), sequence (P01222 21-132, chain 2 of 2, further chain): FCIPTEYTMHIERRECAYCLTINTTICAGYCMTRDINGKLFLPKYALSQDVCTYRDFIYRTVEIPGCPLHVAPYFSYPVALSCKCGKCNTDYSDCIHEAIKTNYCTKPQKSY

Count value (average of five samples) [1]: 410000 count | Count value [2]: 442000 count | Count value [3]: 17300 count | Count value (average of five samples) [4]: 668000 count | Count value [5]: 1.58e+06 count | Count value [6]: 1010 count | Count value [7]: 80400 count | Count value [8]: 700000 count | Count value [9]: 967000 count | Count value [10]: 1.26e+06 count | Count value [11]: 150000 count | Count value [12]: 1.32e+06 count | Count value [13]: 35300 count | Count value [14]: 363 count
Substance: L-biotin-labeled TSH antibody (thyroid stimulating hormone antibody T2-194, KITAYAMA LABES CO., LTD., labeled with L-biotin-AC5-OSu)
